Test [1] deals with human chemokine CXCL8 (IL-8), commercial recombinant (human). The test can be described thus: ELISA; 50 pg chemokine mixed in solution with 2-400 ng recombinant M3 in 110 ul, 21 C, 1.5 h with gentle shaking, then applied to DuoSet sandwich ELISA plates; drop of OD492 against chemokine without M3 = % inhibition; IC25/IC50 = M3 concentration that removes 25 or 50% of the chemokine; three independent experiments. Background: An ELISA detects its analyte on a solid surface through an enzyme-linked reagent.

The target in test [2] is human chemokine CCL5 (RANTES), commercial recombinant (human) (UniProt P13501). The test is described as above.

What is called IC25 is the point of the concentration-response curve where the effect stands at 25%. The term IC50 denotes the midpoint of a concentration-inhibition curve.

UniProt P13501, sequence (P13501 24-91): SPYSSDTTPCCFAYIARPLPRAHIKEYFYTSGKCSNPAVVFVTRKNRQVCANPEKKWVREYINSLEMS

As for “M3-E70A mutant of MHV-68 M3 protein, recombinant, C-terminal His-tag (natural protein)”, the IC25 in test [1] was 11.5 nM. Besides, in test [2], the IC25 worked out at 3.5 nM and the IC50 came out at 8.7 nM.

In the case of “M3-T272G mutant of MHV-68 M3 protein, recombinant, C-terminal His-tag (natural protein)”, the IC25 amounted to 42.5 nM in test [1] and 30.2 nM in test [2]. The IC50 in test [2] was greater than 90 nM.

Take “wild-type M3 protein of murine gammaherpesvirus 68 (MHV-68), recombinant, C-terminal His-tag (natural protein)”: the concentration for an effect of 25% (IC25) in test [1] was found to be 8.7 nM; in test [2], 7.1 nM. Moreover, the IC50 in test [2] is 16.2 nM.

The values are drawn from paper PMC6603146.
